# Patent US20240218071A1 (ANHUI BIOX VISION BIOLOGICAL TECHNOLOGY, published 2024)
# Like-named read-outs stand apart in the source and are kept apart here.
# Experiments:
# [1] = molecular target: T1, P17-His protein (human CD40 antigen) (human, UniProt P25942 21-193, limits assumed); experiment: BLI (Fortebio Octet RED96), antibody on Protein A sensor, P17-His 5-40 nM
# T1 construct: also called human CD40 antigen (P17-His)
# Procedure: In this example, the affinity of C8 parent antibody (C8-WT) and affinity variant antibody for human CD40 antigen (P17-His) was detected using an Fortebio Octet RED96 instrument.
# Material preparation: 1 g of BSA and 500 μL of Tween 20 were added to 1000 mL of 1×PBS and mixed uniformly. The mixture was filtered, and then subpackaged and stored. 0.1 mL of glycine solution (0.1 M, pH 2.0) was pipetted, 0.9 mL of ultrapure water was added, and the mixture was mixed uniformly. The antibodies were diluted to 10 μg/mL with a KB buffer, and the antigens were diluted with a KB buffer to serial concentration gradients, i.e., 40 nM, 20 nM, 10 nM, 5 nM and 0 nM.
# Experiment procedure: The sample plate (GreinierBio, PN655209) was tested after a sensor (Protein A sensor) was pre-wetted in the dark for at least 10 min, and after confirming the accuracy, the test was performed according to the preset programs. KB buffer was added at 200 μL/well to the wells of columns 1, 10 and 12 of sample plate 1; the glycine solution (0.01 M, pH 2.0) was added to the wells of column 11; the prepared sample solution was added to the wells of columns 2-8 (5 replicate wells for one sample); and P17-His was sequentially added to the wells of column 9 in a descending order of the concentration.
# [2] = molecular target: T2, full-length mouse CD40 expressed on CHO-K cells (mouse, UniProt P27512 20-289); experiment: flow cytometry on CHO-K-mouseCD40 cells, FITC anti-human IgG Fc secondary antibody
# T2 construct: whole, on cells; also called CHO-K-mouseCD40 cells; mouse CD40 antigen
# Procedure: The cross-reactivity of the affinity variant candidate antibody prepared in example 4.3 to mouse CD40 was tested using artificially constructed CHO-K cells expressing full-length mouse CD40 (Uniprot #P27512) (CHO-K-mouseCD40 cells). The CHO-K cells expressing mouse CD40 were seeded into a 96-well plate at 1.0×10⁵ cells/well. 100 μL of diluted affinity variant candidate antibody and the control antibody (APX005) were added to the 96-well plate, respectively. […] The cells were then washed and tested by flow cytometry.
# [3] = molecular target: T3, human CD40 expressed on the cell surface (human, UniProt P25942 21-277); experiment: flow cytometry on CHO-K-huCD40 cells, APC anti-human IgG secondary antibody
# T3 construct: whole, on cells; Used for transfected CHO-K cells, for transfected Jurkat reporter cells (Met1-Gln277) and for the natural CD40 on Ramos cells and iDC; also called CHO-K-huCD40 cells; CHO cells expressing CD40
# Procedure: (§1) 100 μL of diluted anti-CD40 candidate antibody prepared in example 4.3 was added to the 96-well plate. After incubation at 4° C. for 30 min, the cells were washed 5 times with a FACS buffer (PBS+5% FBS+2% BSA), added with 100 μL of APC-labeled anti-human IgG secondary antibody, and then incubated at 4° C. for 30 min. The cells were then washed and tested by flow cytometry.
# [4] = molecular target: T3, human CD40 expressed on the cell surface; experiment: as above; remark: listed apart in the source
# Procedure: as §1
# [5] = molecular target: T3, human CD40 expressed on the cell surface; experiment: cell-based or functional assay
# T1 sequence (P25942 other isoform, or with tags, fused parts or gaps limits assumed): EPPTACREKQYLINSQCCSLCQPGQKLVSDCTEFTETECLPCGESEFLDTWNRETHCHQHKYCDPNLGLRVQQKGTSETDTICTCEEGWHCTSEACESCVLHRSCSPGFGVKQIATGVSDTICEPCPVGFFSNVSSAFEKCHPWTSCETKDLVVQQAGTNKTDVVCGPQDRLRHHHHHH
# T2 sequence (P27512 20-289): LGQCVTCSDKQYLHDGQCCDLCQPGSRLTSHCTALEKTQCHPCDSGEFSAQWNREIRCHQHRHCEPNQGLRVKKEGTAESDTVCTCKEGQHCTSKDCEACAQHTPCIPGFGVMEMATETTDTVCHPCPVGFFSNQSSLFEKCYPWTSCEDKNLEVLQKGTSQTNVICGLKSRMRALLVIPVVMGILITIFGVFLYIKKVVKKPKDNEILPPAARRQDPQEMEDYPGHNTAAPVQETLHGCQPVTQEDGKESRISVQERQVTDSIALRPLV
# T3 sequence (P25942 21-277): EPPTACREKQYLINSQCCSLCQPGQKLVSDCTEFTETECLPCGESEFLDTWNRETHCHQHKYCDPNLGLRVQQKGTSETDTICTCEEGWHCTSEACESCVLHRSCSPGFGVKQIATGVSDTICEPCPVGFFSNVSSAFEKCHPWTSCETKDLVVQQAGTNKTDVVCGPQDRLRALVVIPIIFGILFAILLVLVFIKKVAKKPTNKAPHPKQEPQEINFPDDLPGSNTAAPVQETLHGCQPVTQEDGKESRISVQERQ
binder,measurement,setting,value
"C8-8 antibody (antibody, V domains shown) VH: EVQLLESGGGLVRPGGSLRLSCAASGFTFGSYEMNWVRQAPGKGLEWVSYISSSGETTDYADSVKGRFTVSRDNSKNLLYLQMNSLRAEDTAVYYCARDVFFFDSSGPPGAYGMDVWGQGTMVTVSS VL: DIQLTQSPSSLTASVGDRVTITCRSSQGIRSSLAWYQQKPGKPPKLLIYGASSLEGGVPSRFSGSGSGTDFTLTISSLQPEDFATYYCQQLNSFPSTFGQGTKLEIK",Kd,[1],10.3 nM
same,koff,[1],0.011 s⁻¹
same,kon,[1],1.07e+06 M⁻¹ s⁻¹
same,binding result,[2],binds
same,EC50 (read off the curve),[3],~0.7 mg/L
"C8-3 antibody (antibody, V domains shown) VH: EVQLLESGGGLVRPGGSLRLSCAASGFTAGSYEMNWVRQAPGKGLEWVSYISSSGETTDYADSVKGRFTVSRDNSKNLLYLQMNSLRAEDTAVYYCARDVFFFDSSGDNGAYGMDVWGQGTMVTVSS VL: DIQLTQSPSSLTASVGDRVTITCRSSQGIRSSLAWYQQKPGKPPKLLIYGASSLEVGVPSRFSGSGSGTDFTLTISSLQPEDFATYYCQQLNSFPSTFGQGTKLEIK",Kd,[1],4.51 nM
same,koff,[1],0.0111 s⁻¹
same,kon,[1],2.46e+06 M⁻¹ s⁻¹
same,binding result,[2],no binding (tested: 20 µg/mL)
same,EC50 (read off the curve),[4],~0.8 mg/L
"C8-4 antibody (antibody, V domains shown) VH: EVQLLESGGGLVRPGGSLRLSCAASGFTFGSYEMNWVRQAPGKGLEWVSYISSSGETTDYADSVKGRFTVSRDNSKNLLYLQMNSLRAEDTAVYYCARDVFFFDSSGPRGAYGMDVWGQGTMVTVSS VL: DIQLTQSPSSLTASVGDRVTITCRSSQGIRSSLAWYQQKPGKPPKLLIYGASSLEGGVPSRFSGSGSGTDFTLTISSLQPEDFATYYCQQLNSFPSTFGQGTKLEIK",Kd,[1],5.34 nM
same,koff,[1],0.00725 s⁻¹
same,kon,[1],1.36e+06 M⁻¹ s⁻¹
same,binding result,[2],no binding (tested: 20 µg/mL)
same,EC50 (read off the curve),[4],~0.8 mg/L
"C8-7 antibody (antibody, V domains shown) VH: EVQLLESGGGLVRPGGSLRLSCAASGFTFGSYEMNWVRQAPGKGLEWVSYISSSGETTDYADSVKGRFTVSRDNSKNLLYLQMNSLRAEDTAVYYCARDVFFFDSSGDNHAYGMDVWGQGTMVTVSS VL: DIQLTQSPSSLTASVGDRVTITCRSSQGIRSSLAWYQQKPGKPPKLLIYGASSLEGGVPSRFSGSGSGTDFTLTISSLQPEDFATYYCQQLNSFPSTFGQGTKLEIK",Kd,[1],12.4 nM
same,koff,[1],0.0111 s⁻¹
same,kon,[1],895000 M⁻¹ s⁻¹
same,binding result,[2],binds
same,EC50 (read off the curve),[3],~0.9 mg/L
"C8-9 antibody (antibody, V domains shown) VH: EVQLLESGGGLVRPGGSLRLSCAASGFTFGSYEMNWVRQAPGKGLEWVSYISSSGETTDYADSVKGRFTVSRDNSKNLLYLQMNSLRAEDTAVYYCARDVFFFDSSRPNGAYGMDVWGQGTMVTVSS VL: DIQLTQSPSSLTASVGDRVTITCRSSQGIRSSLAWYQQKPGKPPKLLIYGASSLEGGVPSRFSGSGSGTDFTLTISSLQPEDFATYYCQQLNSFPSTFGQGTKLEIK",Kd,[1],9.27 nM
same,koff,[1],0.0112 s⁻¹
same,kon,[1],1.21e+06 M⁻¹ s⁻¹
same,binding result,[2],binds
same,EC50 (read off the curve),[3],~0.9 mg/L
same,CD95 expression on Ramos cells without crosslinking agent (FACS),[5],~10 times weaker than APX005
"C8-2 antibody (antibody, V domains shown) VH: EVQLLESGGGLVRPGGSLRLSCAASGFTFGSYEMNWVRQAPGKGLEWVSYISSSGETTDYADSVKGRFTVSRDNSKNLLYLQMNSLRAEDTAVYYCARDVFFFSPSGDNGAYGMDVWGQGTMVTVSS VL: DIQLTQSPSSLTASVGDRVTITCRSSQGIRSSLAWYQQKPGKPPKLLIYGASSLEGGVPSRFSGSGSGTDFTLTISSLQPEDFATYYCQQLNSFPSTFGQGTKLEIK",Kd,[1],11.9 nM
same,koff,[1],0.0111 s⁻¹
same,kon,[1],932000 M⁻¹ s⁻¹
same,binding result,[2],binds
same,EC50 (read off the curve),[4],~0.8 mg/L
same,CD95 expression on Ramos cells without crosslinking agent (FACS),[5],~10 times weaker than APX005
"C8-1 antibody (antibody, V domains shown) VH: EVQLLESGGGLVRPGGSLRLSCAASGFTFGSYEMNWVRQAPGKGLEWVSYISSSGETTDYADSVKGRFTVSRDNSKNLLYLQMNSLRAEDTAVYYCARDVFFFDSSGDNGAYGMDVWGQGTMVTVSS VL: DIQLTQSPSSLTASVGDRVTITCRSSQGIRSSLAWYQQKPGKPPKLLIYGASSLEGGVPSRFSGSGSGTDFTLTISSLQPEDFATYYCQQLASFPSTFGQGTKLEIK",Kd,[1],12.7 nM
same,koff,[1],0.0148 s⁻¹
same,kon,[1],1.16e+06 M⁻¹ s⁻¹
same,binding result,[2],binds
same,EC50 (read off the curve),[4],~0.8 mg/L
"C8-11 antibody (antibody, V domains shown) VH: EVQLLESGGGLVRPGGSLRLSCAASGFTPGSYEMNWVRQAPGKGLEWVSYISSAGETTDYADSVKGRFTVSRDNSKNLLYLQMNSLRAEDTAVYYCARDVFFFDSSGDNGAYGMDVWGQGTMVTVSS VL: DIQLTQSPSSLTASVGDRVTITCRSSQGIRSSLAWYQQKPGKPPKLLIYGASSLLGGVPSRFSGSGSGTDFTLTISSLQPEDFATYYCQQLNSFPSTFGQGTKLEIK",Kd,[1],9.24 nM
same,koff,[1],0.0148 s⁻¹
same,kon,[1],1.6e+06 M⁻¹ s⁻¹
same,binding result,[2],binds
same,EC50 (read off the curve),[3],~2 mg/L
same,CD95 expression on Ramos cells without crosslinking agent (FACS),[5],~10 times weaker than APX005
"C8-5 antibody (antibody, V domains shown) VH: EVQLLESGGGLVRPGGSLRLSCAASGFTFGSYEMDWVRQAPGKGLEWVSYISSSGETTDYADSVKPRFTVSRDNSKNLLYLQMNSLRAEDTAVYYCARDVFFFDSSGDNGAYGMDVWGQGTMVTVSS VL: DIQLTQSPSSLTASVGDRVTITCRSSQGIRSSLAWYQQKPGKPPKLLIYGGSSLEGGVPSRFSGSGSGTDFTLTISSLQPEDFATYYCQQLNSFPSTFGQGTKLEIK",Kd,[1],8.23 nM
same,koff,[1],0.00818 s⁻¹
same,kon,[1],994000 M⁻¹ s⁻¹
same,binding result,[2],no binding (tested: 20 µg/mL)
same,EC50 (read off the curve),[4],~0.8 mg/L
"C8-6 antibody (antibody, V domains shown) VH: EVQLLESGGGLVRPGGSLRLSCAASGFTFGSYEMNWVRQAPGKGLEWVSYISSSGETTDYADSVKGRFTVSRDNSKNLLYLQMNSLRAEDTAVYYCARDVFFFDSSGSPGAYGMDVWGQGTMVTVSS VL: DIQLTQSPSSLTASVGDRVTITCRSSQGIRSSLAWYQQKPGKPPKLLIYGASSLEGGVPSRFSGSGSGTDFTLTISSLQPEDFATYYCQQLNSFPSTFGQGTKLEIK",Kd,[1],9.04 nM
same,koff,[1],0.00984 s⁻¹
same,kon,[1],1.09e+06 M⁻¹ s⁻¹
same,binding result,[2],binds
same,EC50 (read off the curve),[4],~0.8 mg/L
same,CD95 expression on Ramos cells without crosslinking agent (FACS),[5],~10 times weaker than APX005
"C8-10 antibody (antibody, V domains shown) VH: EVQLLESGGGLVRPGGSLRLSCAASGFTFGSYEMNWVRQAPGKGLEWVSYISSSGETTDYADSVKGRFTVSRDNSKNLLYLQMNSLRAEDTAVYYCARDVFFFDSSGFPGAYGMDVWGQGTMVTVSS VL: DIQLTQSPSSLTASVGDRVTITCRSSQGIRSSLAWYQQKPGKPPKLLIYGASSLEGGVPSRFSGSGSGTDFTLTISSLQPEDFATYYCQQLNSFPSTFGQGTKLEIK",Kd,[1],6.82 nM
same,koff,[1],0.00847 s⁻¹
same,kon,[1],1.24e+06 M⁻¹ s⁻¹
same,binding result,[2],binds
same,EC50 (read off the curve),[3],~0.9 mg/L
same,CD95 expression on Ramos cells without crosslinking agent (FACS),[5],~10 times weaker than APX005
"APX005M (antibody, V domains shown) VH: QVQLVESGGGVVQPGRSLRLSCAASGFSFSSTYVCWVRQAPGKGLEWIACIYTGDGTNYSASWAKGRFTISKDSSKNTVYLQMNSLRAEDTAVYFCARPDITYGFAINFWGPGTLVTVSS VL: DIQMTQSPSSLSASVGDRVTIKCQASQSISSRLAWYQQKPGKPPKLLIYRASTLASGVPSRFSGSGSGTDFTLTISSLQPEDVATYYCQCTGYGISWPIGGGTKVEIK",Kd,[1],6.3 nM
same,koff,[1],0.0124 s⁻¹
same,kon,[1],1.98e+06 M⁻¹ s⁻¹
same,EC50 (read off the curve),[4],~0.7 mg/L
same,EC50 (read off the curve),[3],~0.8 mg/L
